{
  "source": "the nanobody polyreactivity screen of Harvey et al. (2022)",
  "data": [
    {"test": "yeast display, Sf9 membrane polyspecificity reagent, FACS + sequencing; frameworks hold sequencing errors", "how_it_was_run": "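Nanobodies from a synthetic yeast display library (Saccharomyces cerevisiae BJ5465), induced 36–48 hours with galactose, were stained 1 hour at 4 °C with 10% biotinylated, detergent-solubilized Sf9 membrane reagent, enriched on streptavidin microbeads, then FACS-sorted. Anti-HA (expression) and streptavidin (reagent binding) fluorescence set low and high (top ~1%) gates. Polyreactivity labels come from the gate of origin. Genes were colony-PCR amplified, MiSeq 2 × 250 sequenced and filtered by CDR length.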", "values": [
      {"sequence": "QVQLVESGGGLVQAGGSLRLSCASSGSTFFTNVMVRYRQAPGKERELVAAIDQRDGRTYYADSVKGRFTISRDNAKNTVYLQMNSLKPEDTAVYYSNAGTDGYQFYFGFADYDYWGQGTQVTVSA", "polyreactivity (PSR sort gate)": "low polyreactivity"},
      {"sequence": "QVQLVESGGGLVQAGGSLRLSCAASGSTFPYYAMGWYRQEPGKERELVASIRKRGGGTYYADSVKGRFTISRDNAKNTVYLQMNSLKPEDTAVYYCAVRVYQFRYTGYDYWGQGTQVTVSS", "polyreactivity (PSR sort gate)": "high polyreactivity"},
      {"sequence": "QVQLVESGGGLVQAGGSLRLSCAASGITFVFYAMGWYRQAPGKERELVAAISWSGGITYYADSVKGRFTISRDNAKNTVYLQMNSLKPEDTAFYYCAATKRQTKYYGGTTDSIMYYWGQGTQVTVSS", "polyreactivity (PSR sort gate)": "low polyreactivity"},
      {"sequence": "QVQLVESGGGLVQAGGSLRLSCAASGFTFYFYAMAWYRQAPGKERELVAAISSGGSTKYADSVKVRFTISRDNAKNTVYLQMKSLKPEDTAVYYCNRYYPGSGPLGYWGQGTQVTVSS", "polyreactivity (PSR sort gate)": "low polyreactivity"},
      {"sequence": "QVQLVESGGGLVHAGGSLRLSCAASGYSSSQNAMVWYRQEPGKERELLARITTDGTSTYYADSVKGRFTISRDNAKNTVYLHMNSLKPEDTAVYYCNARYPAYVVRSWYPYAYYYWGQGTQVTVSS", "polyreactivity (PSR sort gate)": "low polyreactivity"},
      {"sequence": "QVQLVESGGGLVQAGGSLRLSCAASGITFVWNAMGWYIKEPGKERELVATISRGGVRTYYADSVKGRFTISRDNAKNTVYLQMNSLKPEDTAVYYCNAYFEYYDYWGQGTQVSVSS", "polyreactivity (PSR sort gate)": "low polyreactivity"},
      {"sequence": "QVQIVESGGGLVQAGGSLRLSCAAYGSIFQPYAMGWYRQAPGKERELVAAITNGGSTYYADSVKGRFTISRDNAKNTVYLQMNSLKPEDTGVYYCAADVQSSHEYDYWGKGTQVTVSS", "polyreactivity (PSR sort gate)": "low polyreactivity"},
      {"sequence": "QVQLVESGGGLVQAGGSLRLSCAASGGIFARYVKGWYRQAPGKERELVAAISLSGGSTYYADSVKGRFTISRDNAKKTVYLQMNSLNPEDTAVYYCAAIRKKRLTYDYWGQGTEVTVSS", "polyreactivity (PSR sort gate)": "high polyreactivity"},
      {"sequence": "QVQLVESGGGLVQAGGSLRLSCAASGGTIISYAMGWYRQAPRKERELVAAISRGGSSTYYADSVKGRFTISRDNAKNTVYLQMNSLKPEDTAVYYCVQLTRSGPDLDSWGQGTQVTVSS", "polyreactivity (PSR sort gate)": "high polyreactivity"},
      {"sequence": "QVQLVESGGGLVQAGGSLRLSCAASGRTFIPNAMGWYRQAPGKERELVARITLRGGSTYYADSVKGRFTISRDNAKNTVYLQMNSLKPEDTAVYYCAAVFSRKGLRYDYWGQGTQVTVSS", "polyreactivity (PSR sort gate)": "low polyreactivity"},
      {"sequence": "QVQLVESGGGLVQAGGSLRLSCAASGFIFEWNGMGWYRQAPGKERELVAAITWSGGSTYYADSVKGRFTISRDNAKNTVYLQMNSLKPEDTAVYYCNAYWKDDFEDGPGRRGMDYWGQGTQVTVSS", "polyreactivity (PSR sort gate)": "low polyreactivity"},
      {"sequence": "QVQLVESGGGLVQAGGSLRLSCAASGITFDHSAMGWYRQAPGKEREFVAAIDDIGGDTYYADSVKGRFTISRDNAKNTVYLQMNSLKPEDTAVDYCAADYGYYSRFYYWGQGTQVTVSS", "polyreactivity (PSR sort gate)": "low polyreactivity"},
      {"sequence": "QVQLVESGGGLVQAGGSLRLSCAASGSILGYYAMGWYRQAPGKERELVAAITASGGSTYYADSVKGRFTISRDNAKNTVYLQMNSLKPEDTAVYYCNADGGPGYPRAYDYWGQGTQVTVSS", "polyreactivity (PSR sort gate)": "low polyreactivity"},
      {"sequence": "QVHLVESGGGLVQAGGSLRLSCAASGSTFVTYAMGWYTQAPGKEREFVAAISSTGTGRTYYADSVKGRFTISRDNAKNTVYLQMNSLKPEDTAVYYCAADLYGTYDYCGQGTQVTVSS", "polyreactivity (PSR sort gate)": "low polyreactivity"},
      {"sequence": "QVQLVESGGGLVQAGGRLRLSCAASGLTFYRNAMGWYRQAPGKERELVAAITTSGARTYYADSVKGRFTISRDNAKNTVYLRMNSLKPDVTAVYYCNAPVRRDVAYGYWGQGTQVTVSS", "polyreactivity (PSR sort gate)": "high polyreactivity"},
      {"sequence": "QVQLVESGGGLVQAGGSLRLSCAASGRTFHYYVMGWYRQAPGKERELVAAISRSGGNTYYADSVKGRFTISLDNAKNTVYLQMNSLKPEDTAVYYCAAALSAYVKWDYYYWGQGTQVTVSS", "polyreactivity (PSR sort gate)": "low polyreactivity"},
      {"sequence": "PVQLVESGGGLVQAGGSLRLSCAASGSIFTAYDMGWYRQAPGKERELVAAINVSAGTTYYADSVKGRFTISRDNAKKTVYLQMISLIPEDTAVYYCAARDISLNAVGLPKEYNRDYWGQGTQVTVSS", "polyreactivity (PSR sort gate)": "low polyreactivity"},
      {"sequence": "QVQLVESGGGLVQAGGSLRLSCAASGRTSSRYVMGWYRQAPGKERELVASLSRSGGSTSYADSVKGRFTISRDNAKNTVYLQMISLKPEDTAVDYCYARTSFQRGGGFWGQGTQVTVSS", "polyreactivity (PSR sort gate)": "high polyreactivity"},
      {"sequence": "QVQLVESGGGLVQAGGSLRLSCAASGSTFTYNAMGWYRQAPGKERELVAAISWSGGRTYYADSVKGRFTISRDNATNTVYLQMNSLKPEDTAVYSCAAKYRYSTYSFPYDYWGQGTQVTVSS", "polyreactivity (PSR sort gate)": "high polyreactivity"},
      {"sequence": "QVQLVESGGRLVQAGGSLRLSCAASGITFYLNAMGWYRQAPGKERELVADITVSGGSTYYADSVKGRFTISRDNAKNTVYLQMNSLKPEDTAVYYCAADLTISYSQEYYYWGQGNQVTVSS", "polyreactivity (PSR sort gate)": "low polyreactivity"},
      {"sequence": "QVQLVESGGGLVQAGGRLRLSCAASGRTFLVNAMGWYRQAPGKERELVAAISQRGGSTDYADSVKGRFTISRDNAKNTVYLQMNSLKPEDTAVYYCAVRWGYLYDYWGQVTQVTVSS", "polyreactivity (PSR sort gate)": "low polyreactivity"},
      {"sequence": "QVQLVESGGGLVQAGGSLRLSCAASGIIFPRYAMGWYRQEPGKERELVAAITRRGGRTYYADSVKGRFTISRDNAKNTVYLQMNSLKPEDTAVYYCAARKVNRGSGGYDSWGQGTQVTVSS", "polyreactivity (PSR sort gate)": "high polyreactivity"},
      {"sequence": "QVHLVESGGGLVQAGGSLRLSCAASGSTFVTNAMGWYRQAPGKERELVAAITSGAGTYYADSVKGRFTISRDNAKNTVYLQMNSLKPEDTAVYYCAARRYYSRGRYRFGYWGQGTQVTVSS", "polyreactivity (PSR sort gate)": "high polyreactivity"},
      {"sequence": "QVQLVESGGGLVQAGGSLRLSCAASGFTLSYNVMGWYRQAPGKERELVAAISDSGGSTYYADSVKGRFTISRDNAKNTVYLQMNSLKPEDTAVYYCAAYYPTRYQYGTIWVAYNYWGQGTQVTVSS", "polyreactivity (PSR sort gate)": "low polyreactivity"},
      {"sequence": "QVQLVESGGGLVQAGGSLRLSCAASGSIFGANAMGWYRQAPGKERELVAAISSNGDDTYADSVMGRFTISRDNAKNTVYLQMNSLKPEDTAVYYCAARAERVREYNYWGQGTQVTVSS", "polyreactivity (PSR sort gate)": "low polyreactivity"},
      {"sequence": "QVQLVESGGGLVQAGGSLRLSCAATGSIDSNALGWYRQAPGKERELVADITSGTPTYADSVKGRFTITRDNAKNTVYLQMNSLKPEDTAVYYCAADIPPWGGDYWGQGTQVTVSS", "polyreactivity (PSR sort gate)": "low polyreactivity"},
      {"sequence": "QVQLVESGVGLVQAGGSLRLSCAASGRIFPGNVMGWYIQAPGKERELVAAISRGGGSTYYADSVKGRFTISRDIAKNTVYAQMNSLKPEDTAVYYCNVLRYQSRFRYDYWGLGTQVTVSS", "polyreactivity (PSR sort gate)": "high polyreactivity"},
      {"sequence": "QVQLVESGGGLVQAGGSLRLSCAASGSTFKGYAMGWYRQAPGKERELVAAITWIGGSTTYADSVKGRFTISCDNAKNTVYLQMNSLKPEVTAVYYCAADNFWYFLSATEDYWGQGTQVTVSS", "polyreactivity (PSR sort gate)": "low polyreactivity"},
      {"sequence": "QVQLVESGGGLDQAGGSLRLSCAASGRILRYYTMGWYRQAPGKERELVAAISRSGGGTYYADSVKGRFTISRDNAKNTVYLQMNSLKPEDTAVYYCAKQTHQKAYDYWGQGTQVTVSS", "polyreactivity (PSR sort gate)": "high polyreactivity"},
      {"sequence": "QVQLVETGGGLVQAGGSLRLSCAAYGRIFAIYAMGWYRQAPGKDRELVAAISRSGGSTSYADSVKGRFTISRDNAKNTVYLQMNSLKPEDTAVYYCARRITYYQLSRQRYDYWGQGTQVTVSS", "polyreactivity (PSR sort gate)": "high polyreactivity"},
      {"sequence": "QVQLVESGGGLVQAGGSLRLSCAASGRTFLYNVMGWYRQAPGKERELVAAITSGGRTYYADSVKGRFTISRDNAKNTVYLQMNSLKPEVTAVYYCAADPYFYYYGYDYWGQGTQVTVSS", "polyreactivity (PSR sort gate)": "low polyreactivity"},
      {"sequence": "QVQLVESGGGLVQAGGSLRLSCAASGRTLTRNAMAWYRQAPRTERELVAVITSSGSRTYYADSVKGRFTISRDNAKNTVYLQMNSLKPEDTAVYYCAAKVDASDVRRSRAGRYDYWGQGTQVTVSS", "polyreactivity (PSR sort gate)": "high polyreactivity"},
      {"sequence": "QVHLVESGGGLVQAGGSLRLSFAASGRIFWDNAMGWYRQAHGKERELVAAISDSVVITYYADSVKGRFTISRDNAKNTVYLQMNSLKPEDTAVYYCAADKRGTVYLSSFWMDYWGQGTQVTVSS", "polyreactivity (PSR sort gate)": "low polyreactivity"},
      {"sequence": "QVQLVESGGGLVQAGGSLRLSCAASGSIFTEYAMGWYRQAPGKERELVAAISWSGATTYYADSVKGRFTISRDNAKNTVYLQMNSLKPEDTAVYYCAARWANRSYEYWGQGTQVSVSS", "polyreactivity (PSR sort gate)": "low polyreactivity"},
      {"sequence": "QVQLVESGGGLVQAGGSLRLRCAASGFIFVAYAMGWYIQAPGKERELVAAISWSGGSTYADSVKGRFTISRHNAKNTVYLQMNSLKPEDTAVYYCDARTSPIKTNNWYSQRYDSWGQGTQVTVSS", "polyreactivity (PSR sort gate)": "low polyreactivity"},
      {"sequence": "QVQLEESGGGLVQAGGRLRLSCAASGIIFGYYAIGWYRQAPGKERELVAAISSGGTTSYADSVKGRFTISRDNAKNTVYLQMNSLKPEDTSVYYCSARDWYDGFYYWGQGTQVTVSS", "polyreactivity (PSR sort gate)": "low polyreactivity"},
      {"sequence": "QVQLVESGGGLVQAGGSLRLSCAASGVIFGAYAMGWYRQAPGKERELVAAISSRGTSTYYADSVKGRFTISRDNAKNTVYLQMNSLKPEDTAVYYCNVYYIPLRRYDYWGQGTQVTVSS", "polyreactivity (PSR sort gate)": "high polyreactivity"},
      {"sequence": "QVQLVESGGGLVQAGGSLRLSCAASGLIFGRYAMGWYRQAPGKERELVAAITCGTNTNYADSVKGRFTISRDNAKNTVYLQMNSLKPEDTAVYYCGKASGRCSLARGATYSVDYWGQGTQVTVSS", "polyreactivity (PSR sort gate)": "high polyreactivity"},
      {"sequence": "QVQLVESGGGLVQAGGSLRLSCAPSGRTFNYNAMGWYRQAPGKERELVAAITSSGGGTSYADSVKGRFTISRDNAKNTVYFQMNSLKPYYTAVYYCAAEVDRGKYCSTYRGGDYCGQGTQVTVSS", "polyreactivity (PSR sort gate)": "high polyreactivity"},
      {"sequence": "QVQLVESGGGLVQAGGSLRLSCAASGFTFQFYAMGWYRQAPGKERELVAAITWSGGSTYYADSVKGRFTISRDNAKNSVYLQLKSLKPEDTAVYFCAKDRRTYLSYIYDYWGQGTQVTVSS", "polyreactivity (PSR sort gate)": "high polyreactivity"},
      {"sequence": "QVQLVESGGGLVQAGGSLRLSCAASGSTFYVYAMGWYRQAPGTERELVAAIDYSDGSTYYADSVKGRFTISRDNAKNTVYLQMNSRKPEDTAVYYCAADTVSWFEYYYWGQGTQVTVSS", "polyreactivity (PSR sort gate)": "high polyreactivity"},
      {"sequence": "QVQLVESGGGLVQAGGSLRLSCAASGFIFWLYAMGWYRQAPGKERELVATITYSDGSTYYADSVKGRFTISRDNAKNTVYLQMNSLKPEDTAVYYCAAEVYYGYDYWGQGTQVTVSS", "polyreactivity (PSR sort gate)": "low polyreactivity"},
      {"sequence": "QVQLVESGGGLVQAGGSLRLSCAASGSIFHYNAMGWYRQAPGKERELVAAITSGGSTYYADSVKGRFTISRDNAKKTVYLQMNSLKPEDTAVYYCATVFYRTRYVPYGYWGQGTQVTVSS", "polyreactivity (PSR sort gate)": "low polyreactivity"}
    ]}
  ]
}
